Where “and” joins values, the source holds several entries; their conditions need not be identical. Equal values may be shown once.
B1: cholera toxin B (natural protein)
chain: TPQNITDLCAEYHNTQIYTLNDKIFSYTESLAGKREMAIITFKNGAIFQVEVPGSQHIDSQKKAIERMKDTLRIAYLTEAKVEKLCVWNNKTPHAIAAISMAN
notes: also called CTB

Columns and labels:
[1] = target: hepatitis B virus (HBV) capsid protein (hepatitis B virus) (UniProt P03146); assay: native MS
native MS = target: the molecule itself; assay: native MS

| Molecule | stoichiometry N [1] | binding result (native MS) |
| --- | --- | --- |
| hepatitis B virus (HBV) capsid protein (from UniProt P03146 1-183) (natural protein) | 240 and 180 |  |
| B1 |  | binds |

Source: PMC13054468 (Analytical chemistry, 2025)
